Assay results published in patent US20200347464A1.

Target: prostate-specific membrane antigen (PSMA) (human) (UniProt Q04609)
Experiment: in vivo near-infrared optical imaging of mouse liver, 72 h after Ad-Track-PSMA or Ad-Track-Luciferase, 48 h after 15 or 30 ug J591-IR800

prostate-specific membrane antigen (PSMA) (human), sequence (Q04609 whole entry): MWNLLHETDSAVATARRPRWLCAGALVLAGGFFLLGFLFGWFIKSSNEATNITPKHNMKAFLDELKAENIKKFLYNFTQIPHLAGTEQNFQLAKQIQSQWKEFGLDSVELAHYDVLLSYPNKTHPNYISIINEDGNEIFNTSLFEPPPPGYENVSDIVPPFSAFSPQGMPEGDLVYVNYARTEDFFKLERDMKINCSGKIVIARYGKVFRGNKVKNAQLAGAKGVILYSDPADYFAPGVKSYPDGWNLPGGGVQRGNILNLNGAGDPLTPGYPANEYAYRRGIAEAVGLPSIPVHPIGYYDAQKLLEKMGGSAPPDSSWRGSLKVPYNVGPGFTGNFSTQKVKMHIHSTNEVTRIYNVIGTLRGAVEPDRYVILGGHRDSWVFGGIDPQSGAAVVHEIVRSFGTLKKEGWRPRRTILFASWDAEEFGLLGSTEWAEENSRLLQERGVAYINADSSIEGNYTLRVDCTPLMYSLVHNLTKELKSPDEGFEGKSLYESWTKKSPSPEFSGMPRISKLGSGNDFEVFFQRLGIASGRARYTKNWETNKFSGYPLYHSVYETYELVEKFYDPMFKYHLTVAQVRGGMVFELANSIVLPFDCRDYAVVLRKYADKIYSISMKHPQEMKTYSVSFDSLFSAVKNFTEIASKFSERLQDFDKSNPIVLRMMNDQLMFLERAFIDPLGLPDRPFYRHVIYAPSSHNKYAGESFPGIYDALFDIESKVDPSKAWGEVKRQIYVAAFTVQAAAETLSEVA

## J591 antibody conjugated to IRDye 800CW
  signal-to-noise ratio (PSMA adenovirus relative to control adenovirus, liver): 3
